# From paper PMC5884802
# T1: C-reactive protein (CRP), biotinylated (UniProt P02741 19-224)
# T1 sequence: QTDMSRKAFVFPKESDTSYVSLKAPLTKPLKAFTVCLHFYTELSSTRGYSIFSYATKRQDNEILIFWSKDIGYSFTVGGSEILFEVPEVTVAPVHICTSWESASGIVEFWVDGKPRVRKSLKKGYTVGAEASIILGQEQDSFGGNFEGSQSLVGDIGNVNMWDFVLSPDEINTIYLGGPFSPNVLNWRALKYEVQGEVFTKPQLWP
# B1: Amp(short)-FAM (ssDNA)
# DNA: CACGGCATGGTGGGCGTCGTG
# B2: CRP-FAM (ssDNA)
# DNA: ACACGATGGGGGGGTATGATTTGATGTGGTTGTTGCATGATCGTGG
# B3: CRP w/o TGG-FAM (ssDNA)
# DNA: ACACGAACCGGGCCAATGATTTGATGACCTTGTTGCATGATCGTAG
# B4: Amp(short) w/o TGG-FAM (ssDNA)
# DNA: CACGGCATAGACCGCGTCGTG
# B5: α-Amp-short (AuNP conjugate) (ssDNA)
# DNA: CACGGCATGGTGGGCGTCGTG
# modifications: 5' SH-(C6H12) thiol
# B6: α-Amp-poly(T) (AuNP conjugate) (ssDNA)
# DNA: TTTTTTTTTTTTTTTCACGGCATGGTGGGCGTCGTG
# modifications: 5' SH-(C6H12) thiol
# B7: α-CRP (AuNP conjugate) (ssDNA)
# DNA: B2 DNA
# modifications: 5' SH-(C6H12) thiol
# Key:
# [1] = system: α-CRP (α-CRP-AuNP) (DNA, aptamer) ACACGATGGGGGGGTATGATTTGATGTGGTTGTTGCATGATCGTGG; experiment: competitive lateral flow assay; conditions: Na+ 50 mM, K+ 5 mM, Mg2+ 5 mM, Ca2+ 2 mM; 20 mM Tris, 0.1 mM BSA, 1.7% Triton-X-100, pH 8; biotinylated CRP displaced; signal decrease at 18.5 µg ampicillin
# [2] = system: α-Amp-short (α-Amp-short-AuNP) (DNA, aptamer) CACGGCATGGTGGGCGTCGTG; experiment: competitive lateral flow assay; conditions: Na+ 50 mM, K+ 5 mM, Mg2+ 5 mM, Ca2+ 2 mM; 20 mM Tris, 0.1 mM BSA, 1.7% Triton-X-100, pH 8; biotinylated CRP displaced; signal decrease at 185 µg ampicillin
# [3] = system: CRP-FAM (α-CRP aptamer) (DNA, aptamer) ACACGATGGGGGGGTATGATTTGATGTGGTTGTTGCATGATCGTGG; experiment: microscale thermophoresis; conditions: Na+ 50 mM, K+ 5 mM, Mg2+ 5 mM, Ca2+ 2 mM; 20 mM Tris-HCl, 0.1% Tween-20, pH 8.0; up to 100 µM; no plateau, no fit
# [4] = system: Amp(short)-FAM (α-Amp(short) aptamer) (DNA, aptamer) CACGGCATGGTGGGCGTCGTG; experiment: microscale thermophoresis; conditions: Na+ 50 mM, K+ 5 mM, Mg2+ 5 mM, Ca2+ 2 mM; 20 mM Tris-HCl, 0.1% Tween-20, pH 8.0; second printed KD 600 nM, unexplained
# [5] = molecular target: T1, C-reactive protein (CRP), biotinylated; experiment: MST; binding indicated, no plateau, no Kd fit; CRP-biotin 610 pM-20 µM; LFA: 20 mM Tris, 50 mM NaCl, 5 mM KCl, 5 mM MgCl2, 2 mM CaCl2, 0.1 mM BSA, 1.7% Triton X-100, pH 8, temperature not stated; MST with CRP-biotin: 32.8 mM Tris-HCl, 70.5 mM NaCl, 2.5 mM KCl, 2.5 mM MgCl2, 1.4 mM CaCl2, 0.1% Tween-20, 5 nM FAM-oligo; conditions: protein: commercial; tags: biotin (NHS-PEG4-Biotin); chain copies: 5; label: 5' FAM; stem-loop (Mfold)
# [6] = molecular target: T1, C-reactive protein (CRP), biotinylated; experiment: lateral flow assay (FAM); 4 µg CRP-biotin; LFA: 20 mM Tris, 50 mM NaCl, 5 mM KCl, 5 mM MgCl2, 2 mM CaCl2, 0.1 mM BSA, 1.7% Triton X-100, pH 8, temperature not stated; MST with CRP-biotin: 32.8 mM Tris-HCl, 70.5 mM NaCl, 2.5 mM KCl, 2.5 mM MgCl2, 1.4 mM CaCl2, 0.1% Tween-20, 5 nM FAM-oligo; conditions: protein: commercial; tags: biotin (NHS-PEG4-Biotin); chain copies: 5; label: 5' FAM
# [7] = molecular target: T1, C-reactive protein (CRP), biotinylated; experiment: lateral flow assay (AuNP); 40.5 µg CRP-biotin; test line stronger than α-CRP; LFA: 20 mM Tris, 50 mM NaCl, 5 mM KCl, 5 mM MgCl2, 2 mM CaCl2, 0.1 mM BSA, 1.7% Triton X-100, pH 8, temperature not stated; MST with CRP-biotin: 32.8 mM Tris-HCl, 70.5 mM NaCl, 2.5 mM KCl, 2.5 mM MgCl2, 1.4 mM CaCl2, 0.1% Tween-20, 5 nM FAM-oligo; conditions: protein: commercial, tags: biotin (NHS-PEG4-Biotin), chain copies: 5, label: 10 nm gold nanoparticle via 5' thiol
# [8] = molecular target: T1, C-reactive protein (CRP), biotinylated; experiment: lateral flow assay (AuNP); 40.5 µg CRP-biotin; LFA: 20 mM Tris, 50 mM NaCl, 5 mM KCl, 5 mM MgCl2, 2 mM CaCl2, 0.1 mM BSA, 1.7% Triton X-100, pH 8, temperature not stated; MST with CRP-biotin: 32.8 mM Tris-HCl, 70.5 mM NaCl, 2.5 mM KCl, 2.5 mM MgCl2, 1.4 mM CaCl2, 0.1% Tween-20, 5 nM FAM-oligo; conditions: protein: commercial; tags: biotin (NHS-PEG4-Biotin); chain copies: 5; label: 10 nm gold nanoparticle via 5' thiol; stem-loop (Mfold)
molecule,measurement,setting,value
CC1(C)S[C@@H]2[C@H](NC(=O)[C@H](N)c3ccccc3)C(=O)N2[C@H]1C(=O)O,binding,[1],yes
same,binding,[2],yes
same,binding,[3],yes
same,KD,[4],263 nM
B1,binding result,[5],binds
B2,binding result,[5],binds
B3,binding result,[6],binds
B4,binding result,[6],binds
B5,binding result,[7]; stem-loop (Mfold),binds
B6,binding result,[7],binds
B7,binding result,[8],binds
